Among the data in the RNAGym collection of RNA variant scans (doi:10.7554/elife.80360) are self-cleavage values, retold here.

B1: CPEB3 Ribozyme (parent)
chain: GGGGGCCACAGCAGAAGCGUUCACGUCGCGGCCCCUGUCAGAUUCUGGUGAAUCUGCGAAUUCUGCUGU

In the data set the parent is B1. As to the kind of experiment: self-cleavage, relative activity (ratio to wild type); higher = more cleavage; co-transcriptional.
In the case of GGGGGCCGCAGCAGAAGCGUUCACGUCGCGGCCCCUGUCAGGUUCUGGUGAAUCUGCGAAUUCUGCUGU [A8G A42G], the self-cleavage was 0.536.

Regarding GGGGGCCGCAGCAGAAGCGUUCACGUCGCGGCCCCUGUCAGUUUCUGGUGAAUCUGCGAAUUCUGCUGU [A8G A42U], the self-cleavage was 0.622. For GGGGGCCGCAGCAGAAGCGUUCACGUCGCGGCCCCUGUCAGCUUCUGGUGAAUCUGCGAAUUCUGCUGU [A8G A42C], the self-cleavage turned out to be 0.59. As for GGGGGCCGCAGCAGAAGCGUUCACGUCGCGGCCCCUGUCAGAUUCUGGUGAAUCUGCGUAUUCUGCUGU [A8G A59U], the self-cleavage was 0.401. The figure for GGGGGCCGCAGCAGAAGCGUUCACGUCGCGGCCCCUGUCAGAUUCUGGUGAAUCUGCGCAUUCUGCUGU [A8G A59C] is 0.162. As to GGGGGCCGCAGCAGAAGCGUUCACGUCGCGGCCCCUGUCAGAUUCUGGUGAAUCUGCGGAUUCUGCUGU [A8G A59G], the self-cleavage amounted to 0.897. Regarding GGGGGCCGGAGCAGAAGCGUUCACGUCGCGGCCCCUGUCAGAUUCUGGUGAAUCUGCGAAUUCUGCUGU [A8G C9G], the self-cleavage stood at 0.915.

For the variant GGGGGCCGUAGCAGAAGCGUUCACGUCGCGGCCCCUGUCAGAUUCUGGUGAAUCUGCGAAUUCUGCUGU [A8G C9U], the self-cleavage turned out to be 0.954. As for GGGGGCCGCAGCAGAAGCGUUCACGUCGCGGCCCCUGUCAGAUUCUGGUGCAUCUGCGAAUUCUGCUGU [A8G A51C], the figure is 0.706. Regarding GGGGGCCGCAGCAGAAGCGUUCUCGUCGCGGCCCCUGUCAGAUUCUGGUGAAUCUGCGAAUUCUGCUGU [A8G A23U], the self-cleavage stood at 0.858. Consider GGGGGCCGCAGCAGAAGCGUUCGCGUCGCGGCCCCUGUCAGAUUCUGGUGAAUCUGCGAAUUCUGCUGU [A8G A23G], for which the self-cleavage stood at 0.623. The figure for GGGGGCCCCAGCAGAAGCGUUCACGUCGCGGCCCCUGUCAGAUUCUGGUGAAUCUGCGAAUUCUGCAGU [A8C U67A] is 1.04; for GGGGGCCGCAGCAGAAGCGUUCACGUCGCGGCCCCUGUAAGAUUCUGGUGAAUCUGCGAAUUCUGCUGU [A8G C39A] it is 0.242. Regarding GGGGGCCGCAGCAGAAGCGUUCACGUCGCGGCCCCUGUGAGAUUCUGGUGAAUCUGCGAAUUCUGCUGU [A8G C39G], the self-cleavage came out at 0.537.

Consider GGGGGCCGCAGCAGAAGCGUUCACGUCGCGGCCCCUGUCAGAUUCUGGUGAUUCUGCGAAUUCUGCUGU [A8G A52U], for which the self-cleavage was found to be 0.803.

In the case of GGGGGCCGCAGCAGAAGCGUUCACGUCGCGGCCCCUGUCAGAUUCUGGUGAGUCUGCGAAUUCUGCUGU [A8G A52G], the self-cleavage turned out to be 0.902. As for GGGGGCCGCAGCAGAAGCGUUCACGUCGCGGCCCCUGUCAGAUUCUGGUGACUCUGCGAAUUCUGCUGU [A8G A52C], the figure is 0.768; as for GGGGGCCCCAGCAGAAGCGUUCACGUCGCGGCCCCUGUCAGAUUCUGGUGAACCUGCGAAUUCUGCUGU [A8C U53C], 0.902; as for GGGGGCCCCAGCAGAAGCGUUCACGUCGCGGCCCCUGUCAGAUUCUGGUGAAGCUGCGAAUUCUGCUGU [A8C U53G], 0.89. The figure for GGGGGCCCCAGCAGAAGCGUUCACGUCGCGGCCCCUGUCAGAUUCUGGUGAAACUGCGAAUUCUGCUGU [A8C U53A] is 0.919; for GGGGGCCCCAGCAGAAGCGUUCACGUCGCGGCCCCUGCCAGAUUCUGGUGAAUCUGCGAAUUCUGCUGU [A8C U38C] it is 0.9.

Regarding GGGGGCCGCAGCAGAAGCGUUCAAGUCGCGGCCCCUGUCAGAUUCUGGUGAAUCUGCGAAUUCUGCUGU [A8G C24A], the self-cleavage came to 0.446. As for GGGGGCCGCAGCAGAAGCGUUCAUGUCGCGGCCCCUGUCAGAUUCUGGUGAAUCUGCGAAUUCUGCUGU [A8G C24U], the figure is 0.174; as for GGGGGCCGCAGCAGAAGCGUUCAGGUCGCGGCCCCUGUCAGAUUCUGGUGAAUCUGCGAAUUCUGCUGU [A8G C24G], 0.15.

For the variant GGGGGCCCCAGCAGAAGCGUUCACGUCGCGGCCCCUGUCAGAUUCUGGGGAAUCUGCGAAUUCUGCUGU [A8C U49G], the self-cleavage was 1.01. As for GGGGGCCCCAGCAGAAGCGUUCACGUCGCGGCCCCUGUCAGAUUCUGGCGAAUCUGCGAAUUCUGCUGU [A8C U49C], the figure is 1. As for GGGGGCCCCAGCAGAAGCGUUCACGUCGCGGCCCCUGUCAGAUUCUGGAGAAUCUGCGAAUUCUGCUGU [A8C U49A], the figure is 1.06; as for GGGGGCCGCAGCAGAAGCGUUCACGUCGCGGCCGCUGUCAGAUUCUGGUGAAUCUGCGAAUUCUGCUGU [A8G C34G], 0.665.

As for GGGGGCCGCAGCAGAAGGGUUCACGUCGCGGCCCCUGUCAGAUUCUGGUGAAUCUGCGAAUUCUGCUGU [A8G C18G], the self-cleavage was found to be 0.0214. For the variant GGGGGCCGCAGCAGAAGUGUUCACGUCGCGGCCCCUGUCAGAUUCUGGUGAAUCUGCGAAUUCUGCUGU [A8G C18U], the self-cleavage amounted to 0.207. As for GGGGGCCGCAGCAGAAGAGUUCACGUCGCGGCCCCUGUCAGAUUCUGGUGAAUCUGCGAAUUCUGCUGU [A8G C18A], the figure is 0.12.

Turning to GGGGGCCGCAGCAGAAGCGUUCACGUCGCGGCUCCUGUCAGAUUCUGGUGAAUCUGCGAAUUCUGCUGU [A8G C33U], the self-cleavage is 0.833. As for GGGGGCCGCAGCAGAAGCGUUCACGUCGCGGCACCUGUCAGAUUCUGGUGAAUCUGCGAAUUCUGCUGU [A8G C33A], the figure is 0.73; as for GGGGGCCGCAGCAGAAGCGUUCACGUCGCGGCCCCUGUCUGAUUCUGGUGAAUCUGCGAAUUCUGCUGU [A8G A40U], 0.333; as for GGGGGCCGCAGCAGAAGCGUUCACGUCGCGGCCCCUGUCGGAUUCUGGUGAAUCUGCGAAUUCUGCUGU [A8G A40G], 0.723. The figure for GGGGGCCGCAGCAGAAGCGUUCACGUCGCGGCCCCUGUCCGAUUCUGGUGAAUCUGCGAAUUCUGCUGU [A8G A40C] is 0.103. As for GGGGGCCCCAGCAGAAGCGUUCACGUCGCGGCCCCUGUCAGAUCCUGGUGAAUCUGCGAAUUCUGCUGU [A8C U44C], the self-cleavage came to 0.896. As for GGGGGCCCCAGCAGAAGCGUUCACGUCGCGGCCCCUGUCAGAUACUGGUGAAUCUGCGAAUUCUGCUGU [A8C U44A], the figure is 0.944. The figure for GGGGGCCCCAGCAGAAGCGUUCACGUCGCGGCCCCUGUCAGAUUCUGGUGAAUCAGCGAAUUCUGCUGU [A8C U55A] is 0.969.
